The results in this text go back to patent US20220315628A1.

The target in test [1] is W1G2 peptide (XGVECK-biotin with X = Trp). Put plainly: SPR, steady state; biotinylated peptide on streptavidin chip, protein in solution.
In test [2] the target is F1G2 peptide (XGVECK-biotin with X = Phe). The description is as above.
The target in test [3] is Y1G2 peptide (XGVECK-biotin with X = Tyr). Described as above.
For test [4] the target is unchanged. Put plainly: SPR; KD for the Tyr peptide divided by KD for the Phe peptide.
For test [5] the target is unchanged. Put plainly: SPR; KD for the Tyr peptide divided by KD for the Trp peptide.
Test [6] addresses F1G2 peptide (XGVECK-biotin with X = Phe). Put plainly: SPR; KD for the Phe peptide divided by KD for the Phe peptide.
Test [7] concerns the target W1G2 peptide (XGVECK-biotin with X = Trp). Put plainly: SPR; KD for the Trp peptide divided by KD for the Phe peptide.
In test [8] the target is F1G2 peptide (XGVECK-biotin with X = Phe). Put plainly: SPR; KD for the Phe peptide divided by KD for the Trp peptide.
The target of test [9] is Y1G2 peptide (XGVECK-biotin with X = Tyr). Put plainly: SPR; KD for the Tyr peptide divided by KD for the Tyr peptide.
Test [10] concerns the target W1G2 peptide (XGVECK-biotin with X = Trp). Put plainly: SPR; KD for the Trp peptide divided by KD for the Tyr peptide.
The target of test [11] is F1G2 peptide (XGVECK-biotin with X = Phe). Put plainly: SPR; KD for the Phe peptide divided by KD for the Tyr peptide.
The target of test [12] is W1G2 peptide (XGVECK-biotin with X = Trp). Put plainly: SPR; KD for the Trp peptide divided by KD for the Trp peptide.
For test [13] the target is unchanged. Put plainly: SPR dissociation curves; biotinylated peptide on streptavidin chip.
The target in test [14] is F1G2 peptide (XGVECK-biotin with X = Phe). Described as above.
Test [15] deals with Y1G2 peptide (XGVECK-biotin with X = Tyr). Described as above.

B1: A. tumefaciens ClpS2 [Pro34 Arg35 Glu36], wild-type, expressed in and purified from E. coli (protein)
chain: MGHHHHHHENLYFQGSDSPVDLKPKPKVKPKLERPKLYKVMLLNDDYTPREFVTVVLKAVFRMSEDTGRRVMMTAHRFGSAVVVVCERDIAETKAKEATDLGKEAGFPLMFTTEPEE
As to B1, the dissociation constant (Kd) in test [1] worked out at 18.4 µM; in test [2], 13 µM; in [3], 63 µM. Besides, the Selectivity for Tyr, Tyr/Phe in test [4] was determined as 4.86. In addition, the Selectivity for Tyr, Tyr/Trp in test [5] came out at 3.43. The Selectivity for Phe, Phe/Phe in test [6] was determined as 1. This molecule displayed a Selectivity for Trp, Trp/Phe in test [7] of 1.42. In test [8], the Selectivity for Phe, Phe/Trp was 0.71. This molecule also showed a Selectivity for Tyr, Tyr/Tyr in test [9] of 1. Further, in test [10], the Selectivity for Trp, Trp/Tyr was 0.29. The molecule also returned a Selectivity for Phe, Phe/Tyr in [11] of 0.21. The Selectivity for Trp, Trp/Trp in [12] worked out at 1. For the same molecule, the koff in [13] was 1.32 s⁻¹; in test [14] it was 0.93 s⁻¹; in [15], 1.16 s⁻¹.
